From article doi:10.1101/2023.06.16.545277, “VAMP2 regulates phase separation of alpha-synuclein” (bioRxiv, 2023)

Biological target: wild-type human full-length alpha-synuclein (human, UniProt P37840 1-140)
Assay: NMR titration; 1H-15N-BEST-TROSY chemical shift perturbation; 40 μM 15N-labelled aSYN fixed, peptide titrated; 20 mM phosphate buffer, pH 7.0, 10% 2H2O, 298 K
Conditions: both partners purified

binding result: binds
B1: JMD long peptide (peptide)
peptide: KLKRKYWWKNLKMM
notes: VAMP2, full length of the juxtamembrane (JM) domain, aa 83-96; also called native JMD long peptide; JM-domain of VAMP2, aa 83-96; source: synthetic peptide (custom synthesis, Proteogenix)
